Experimental data: publication PMC4355975, “PAT1 inversely regulates the surface Amyloid Precursor Protein level in mouse primary neurons” (BMC Neuroscience, 2015)

Key:
[1] = molecular target: T1, Amyloid Precursor Protein (APP) (mouse (endogenous in primary cortical …, UniProt P12023 18-770)); experiment: co-IP; total extracts of mouse primary cortical neurons at 6 DIV; APP precipitated with anti-APP Cter polyclonal antibody and protein A Sepharose; IP buffer Hepes 10 mM, NaCl 150 mM, CaCl2 2 mM, 1% Triton X 100, 4°C; blots for APP and PAT1; conditions: partners not purified
T1 construct: Amyloid precursor protein, endogenous in mouse primary cortical neurons; precipitated with the anti-APP Cter polyclonal antibody, detected with anti-APP-Nter A4; In the cell surface co-IP the surface pool was labelled with sulfo-NHS-biotin; source: endogenous, mouse primary cortical neurons (E16, Swiss strain), in lysate

[2] = molecular target: T1, Amyloid Precursor Protein (APP); experiment: co-IP; after cell surface biotinylation of mouse primary cortical neurons at 6 DIV (Cell surface Co-IP); APP precipitated with anti-APP Cter polyclonal antibody; blots for APP and PAT1; conditions: partners not purified

ratio of APP to PAT1 in the immunoprecipitate (arbitrary units) [1]: 2.7 AU | ratio of APP to PAT1 in the immunoprecipitate (arbitrary units) [2]: 6 AU
B1: PAT1 (Protein interacting with APP tail 1) (natural protein, UniProt Q9DAX9 1-585, looked up)
chain: MAAVELEWIPETLYNTAISAVVDNYIRSRRDIRSLPENIQFDVYYKLYQQGRLCQLGSEFCELEVFAKVLRALDKRHLLHHCFQALMDHGVKVASVLAYSFSRRCSYIAESDAAVKEKAIQVGFVLGGFLSDAGWYSDAEKVFLSCLQLCTLHDEMLHWFRAVECCVRLLHVRNGNCKYHLGEETFKLAQTYMDKLSKHGQQANRAALYGELCALLFAKSHYDEAYKWCVEAMKEITAGLPVKVVVDVLRQASKACVVKREFKKAEQLIKHAVYLARDHFGSKHPKYSDTLLDYGFYLLNVDNICQSVAIYQAALDIRQSVFGGKNIHVATAHEDLAYSSYVHQYSSGKFDNALFHAERAIGIITHILPEDHLLLASSKRVKALILEEIAIDCHNKETEQRLLQEAHDLHLSSLQLAKKAFGEFNVQTAKHYGNLGRLYQSMRKFKEAEEMHIKAIQIKEQLLGQEDYEVALSVGHLASLYNYDMNQYENAEKLYLRSIAIGKKLFGEGYSGLEYDYRGLIKLYNSIGNYEKVFEYHNVLSNWNRLRDRQYSVTDALEDVSSSPQSTEEVVQSFLMAQNVEGPSC
notes: PAT1 / APPBP2, endogenous in mouse primary cortical neurons; detected by blot with mAb26; also called Ara67; source: endogenous, mouse primary cortical neurons (E16, Swiss strain), in lysate
